Paper PMC8099778

Target: myosin VI (mouse (endogenous in mouse brain)) (UniProt Q64331)
Assay: co-IP

Sequence of UniProt Q64331 (Q64331 whole entry): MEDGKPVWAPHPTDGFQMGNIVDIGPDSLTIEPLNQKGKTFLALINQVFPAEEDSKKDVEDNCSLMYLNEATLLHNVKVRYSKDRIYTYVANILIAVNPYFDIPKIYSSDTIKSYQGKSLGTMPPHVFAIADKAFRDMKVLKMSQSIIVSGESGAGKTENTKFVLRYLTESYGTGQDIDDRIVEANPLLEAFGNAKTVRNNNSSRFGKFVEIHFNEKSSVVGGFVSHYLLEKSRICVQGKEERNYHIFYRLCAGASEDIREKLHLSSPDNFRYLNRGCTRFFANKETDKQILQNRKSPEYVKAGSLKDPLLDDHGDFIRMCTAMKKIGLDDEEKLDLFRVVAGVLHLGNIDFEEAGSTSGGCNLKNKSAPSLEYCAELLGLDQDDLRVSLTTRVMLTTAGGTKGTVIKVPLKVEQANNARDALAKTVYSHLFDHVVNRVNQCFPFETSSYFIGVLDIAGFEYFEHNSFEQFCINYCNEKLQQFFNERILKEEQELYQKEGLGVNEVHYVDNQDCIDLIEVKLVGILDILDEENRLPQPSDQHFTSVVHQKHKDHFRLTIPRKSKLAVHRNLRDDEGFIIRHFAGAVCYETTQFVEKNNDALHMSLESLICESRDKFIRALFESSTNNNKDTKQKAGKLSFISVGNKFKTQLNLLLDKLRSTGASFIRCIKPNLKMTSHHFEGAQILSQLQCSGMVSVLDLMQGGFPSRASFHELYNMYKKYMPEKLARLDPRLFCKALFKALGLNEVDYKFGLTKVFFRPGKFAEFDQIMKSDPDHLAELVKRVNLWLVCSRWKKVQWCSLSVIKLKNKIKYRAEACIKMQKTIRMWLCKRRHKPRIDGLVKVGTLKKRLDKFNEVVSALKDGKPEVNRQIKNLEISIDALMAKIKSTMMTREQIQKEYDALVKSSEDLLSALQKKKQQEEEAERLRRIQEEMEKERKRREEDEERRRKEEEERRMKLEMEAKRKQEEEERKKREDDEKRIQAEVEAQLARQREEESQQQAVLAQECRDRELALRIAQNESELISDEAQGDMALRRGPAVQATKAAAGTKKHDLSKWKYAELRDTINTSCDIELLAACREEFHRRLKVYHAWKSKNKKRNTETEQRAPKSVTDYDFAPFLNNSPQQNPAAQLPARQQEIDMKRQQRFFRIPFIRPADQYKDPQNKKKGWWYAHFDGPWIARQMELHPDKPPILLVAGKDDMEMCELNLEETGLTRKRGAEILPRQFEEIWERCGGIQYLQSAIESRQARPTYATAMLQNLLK

- DIC coprecipitation normalized to myosin VI immunoprecipitation (wt lysate): 1.44
Substance: dynein intermediate chain (from UniProt O88485 1-628) (natural protein)
